# Assay results reported in paper PMC7949152, “A resistant mutant of Plasmodium falciparum purine nucleoside phosphorylase uses wild-type neighbors to maintain parasite survival” (The Journal of Biological Chemistry, 2021).
# System: OC[C@H]1O[C@@H](n2cnc3c(O)ncnc32)[C@H](O)[C@@H]1O
# Experiment: Michaelis-Menten kinetics, xanthine oxidase-coupled assay (Km)
# Assay type: biochemical, Plasmodium falciparum
# Conditions: phosphate catalytic site
substance,measurement,value
"Plasmodium falciparum purine nucleoside phosphorylase (PfPNP), native subunits (natPNPfus) (Plasmodium falciparum 3D7)",Km,5.4 µM
